Reference: US20250295734A1, “ANTICOAGULANT PROTEINS AND THEIR USE FOR TREATING DISEASES ASSOCIATED WITH THE ACTIVATION OF NEUTROPHILS” (BIOXODES, priority 2018, published 2025)

How the values were obtained:
clot fibrinolysis = details: dose-dependent; in a lesser extend than aPTT; cited from earlier work
FXIa = FXIa (Homo sapiens, UniProt P03951); details: aPTT-based test, FXI deficient plasma; cited from earlier work
[1] = tested on: venous thrombus formation; details: dose-dependent; cited from earlier work
[2] = tested on: extrinsic or common pathway; details: in vitro; cited from earlier work
plasminogen = plasminogen (Homo sapiens, UniProt P00747); details: cited from earlier work
intrinsic pathway = details: in vitro; dose-dependent; cited from earlier work
human neutrophils = test: Phagocytosis assay with pHrodo E. coli bioparticles; format: cell-based; details: for neutrophil phagocytic activity: 3 donors
Method: The effect of Ir-CPI on the phagocytic activity of human neutrophils was assessed. For this purpose, freshly isolated neutrophils from 3 donors were pre-treated for 1 h with recombinant Ir-CPI at 2 different concentrations (5.0 or 15.3 μg/mL) and then incubated in the presence of pH-rodo® E. coli bioparticles (Sartorius). To evaluate the phagocytic activity, fluorescence was monitored every 15 min for up to 48 hours.
Neutrophils were directly isolated from whole blood by using the EasySep™ Direct Human Neutrophil Isolation Kit (StemCell) and according to the manufacturer's protocol. The purification is a negative selection (elimination of unwanted cell populations) to obtain intact neutrophils.
pHrodo® Green E. coli Bioparticles were resuspended at 1 mg/mL in PBS, vortexed and sonicated according to the manufacturer's protocol and then stored at 4° C. overnight. Then, 25.000 freshly isolated neutrophils, resuspended in RPMI 1640 medium containing 10% of FBS and supplements (2 mM Glutamine, 1% NEAA, 1 mM Sodium pyruvate, 50 μM B-mercaptoethanol and 50 μg/ml Gentamycin), were seeded per well in a 96 well-plate and preincubated for 1 h at 37° C., 5% CO2 with Ir-CPI at two different concentrations (2 μM and 0.65 μM). Then, pHrodo® Green E. coli Bioparticles were added at 10 μg/well and the plate was incubated in the Incucyte® Live-Cell Analysis System. Pictures were taken every 15 minutes for 48 hours. Two negative controls were performed: (1) only the neutrophils were seeded in absence of Ir-CPI and without particles, and (2) neutrophils were seeded in absence of Ir-CPI and incubated with the particles. All conditions were performed in triplicates.
To analyse neutrophil phagocytosis, the Green total area (μm2/image) was measured in each well every 15 minutes for 48 hours (2 pictures/well). Briefly, the IncuCyte® Basic Analysis software allows for the quantification of fluorescent object metrics in real-time. […]

[3] = Quantification of Ir-CPI in plasma samples by ELISA; format: in vivo, mice (C57BL/6JRj); details: iv bolus 20.5 mg/kg + infusion 3.7 mg/kg/h; after about 150 min of procedure; Mean±SEM, n=5
Method: Plasma (around 250 μL) was centrifuged at 18-22° C./at 2500 g during 15 min. Plasma was centrifuged again (18-22° C. at 2500 g during 15 min) and was stored into a polypropylene tube at −80° C. Plasma samples were later sent frozen on dry ice for dosage of the circulating concentration of Ir-CPI by ELISA.
The quantification of circulating Ir-CPI in the plasma samples was assessed by ELISA at Eurofins, ADME Bioanalyses (Vergèze, France). A sandwich immuno-assay was carried out using two anti-Ir-CPI antibodies. The capture monoclonal antibody (Ir-CPI3) was coated to microtitration plates (Nunc, ThermoFischer Scientific, USA) at 1 μg/mL overnight at 4° C. in PBS (Hyclone, USA). Wells were blocked with PBS BSA 2% (Sigma-Aldrich, USA) at room temperature (RT) for 1 h and were then washed. Samples were added into the wells and incubated for 2 h at RT. The biotinylated detection antibody (L39-biotin), previously diluted in PBS BSA 1% (Sigma-Aldrich, USA), was added to the wells and complemented with streptavidin-HRP (REF) diluted in PBS BSA 1%. TMB SureBlue (KPL, REF) and H2SO4 IN (VWR, USA) were used for spectrophotometric detection (450 nm).

[4] = Dissolution in NaCl 0.9% (solubility limit); format: physicochemical
Method: Ir-CPI was freshly prepared on the testing day by dissolution in NaCl 0.9% to reach the concentration of 50 mg/mL (corresponding to the maximal concentration to reach to avoid solubility issues).

plasmin = plasmin (Homo sapiens, UniProt P00747); details: cited from earlier work
plasmin, sequence (P00747 97-580 limits assumed, species assumed): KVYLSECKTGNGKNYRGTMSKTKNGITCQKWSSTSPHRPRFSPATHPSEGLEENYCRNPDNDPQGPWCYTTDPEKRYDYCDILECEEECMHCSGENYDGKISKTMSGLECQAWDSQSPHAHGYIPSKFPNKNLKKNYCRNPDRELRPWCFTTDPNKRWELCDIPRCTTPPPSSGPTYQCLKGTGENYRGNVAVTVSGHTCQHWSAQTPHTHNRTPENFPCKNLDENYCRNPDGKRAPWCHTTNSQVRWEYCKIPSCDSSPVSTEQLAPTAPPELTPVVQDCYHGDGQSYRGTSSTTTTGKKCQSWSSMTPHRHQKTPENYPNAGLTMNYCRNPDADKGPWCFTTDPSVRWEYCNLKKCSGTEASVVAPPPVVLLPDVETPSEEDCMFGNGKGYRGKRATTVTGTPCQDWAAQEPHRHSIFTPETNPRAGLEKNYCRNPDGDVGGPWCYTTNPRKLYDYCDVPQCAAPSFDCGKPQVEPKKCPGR
plasmin, sequence (P00747 581-810 limits assumed, species assumed): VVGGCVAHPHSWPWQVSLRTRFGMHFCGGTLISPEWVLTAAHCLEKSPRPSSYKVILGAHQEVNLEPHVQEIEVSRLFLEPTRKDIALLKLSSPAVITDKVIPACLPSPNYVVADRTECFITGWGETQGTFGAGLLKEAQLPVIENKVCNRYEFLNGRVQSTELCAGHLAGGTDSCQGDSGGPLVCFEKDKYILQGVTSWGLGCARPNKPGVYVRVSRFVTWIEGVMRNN

FXIa, sequence (P03951 19-387 limits assumed): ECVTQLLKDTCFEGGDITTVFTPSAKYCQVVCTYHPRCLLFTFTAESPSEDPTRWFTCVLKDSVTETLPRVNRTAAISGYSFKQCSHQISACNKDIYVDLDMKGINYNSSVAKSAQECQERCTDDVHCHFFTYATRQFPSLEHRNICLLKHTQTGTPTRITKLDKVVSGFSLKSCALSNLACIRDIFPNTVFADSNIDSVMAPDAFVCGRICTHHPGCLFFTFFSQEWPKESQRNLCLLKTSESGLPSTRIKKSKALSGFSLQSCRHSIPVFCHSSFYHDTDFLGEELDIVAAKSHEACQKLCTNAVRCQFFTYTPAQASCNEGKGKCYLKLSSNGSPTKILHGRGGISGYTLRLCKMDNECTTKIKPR
FXIa, sequence (P03951 388-625 limits assumed): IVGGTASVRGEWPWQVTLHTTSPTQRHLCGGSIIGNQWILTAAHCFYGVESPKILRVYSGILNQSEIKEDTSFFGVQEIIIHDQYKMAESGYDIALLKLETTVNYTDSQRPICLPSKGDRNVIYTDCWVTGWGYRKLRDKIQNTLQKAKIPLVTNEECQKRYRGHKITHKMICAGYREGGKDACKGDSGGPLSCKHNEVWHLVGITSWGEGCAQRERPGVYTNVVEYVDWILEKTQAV
plasminogen, sequence (P00747 20-810 limits assumed, species assumed): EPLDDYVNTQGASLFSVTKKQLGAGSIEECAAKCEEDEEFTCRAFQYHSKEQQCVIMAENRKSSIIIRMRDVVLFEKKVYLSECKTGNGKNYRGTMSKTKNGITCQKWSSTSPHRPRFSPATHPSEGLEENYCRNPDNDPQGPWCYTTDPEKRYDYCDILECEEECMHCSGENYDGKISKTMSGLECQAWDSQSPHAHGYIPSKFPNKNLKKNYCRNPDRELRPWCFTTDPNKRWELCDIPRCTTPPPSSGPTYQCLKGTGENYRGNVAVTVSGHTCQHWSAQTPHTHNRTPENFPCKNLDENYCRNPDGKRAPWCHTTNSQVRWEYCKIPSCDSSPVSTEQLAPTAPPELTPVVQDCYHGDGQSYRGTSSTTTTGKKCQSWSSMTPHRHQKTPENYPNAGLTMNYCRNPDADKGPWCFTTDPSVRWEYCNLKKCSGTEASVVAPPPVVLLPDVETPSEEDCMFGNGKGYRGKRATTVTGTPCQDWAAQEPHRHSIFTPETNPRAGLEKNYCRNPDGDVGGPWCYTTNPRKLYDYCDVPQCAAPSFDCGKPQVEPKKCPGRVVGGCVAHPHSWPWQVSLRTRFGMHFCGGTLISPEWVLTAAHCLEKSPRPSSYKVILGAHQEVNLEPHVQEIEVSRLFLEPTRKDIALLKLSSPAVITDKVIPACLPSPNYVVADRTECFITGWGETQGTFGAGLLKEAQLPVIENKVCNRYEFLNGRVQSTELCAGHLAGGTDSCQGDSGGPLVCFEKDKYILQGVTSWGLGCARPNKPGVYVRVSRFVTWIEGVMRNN

B1: Ir-CPI: Ixodes ricinus salivary gland polypeptide, contact phase inhibitor, MW=7660 Da; sequence SEQ ID NO: 1 or SEQ ID NO: 2 (protein)
chain: ANHKGRGRPAKCKLPPDDGPCRARIPSYYFDRKTKTCKEFMYGGCEGNENNFENITTCQEECRAKKV
With B1 as the molecule, how does the clot fibrinolysis time (clot fibrinolysis) read?
The clot fibrinolysis time was “prolongs”.

What about the FXIa clotting activity (FXIa) of the same molecule?
The FXIa clotting activity was “inhibits”.

What about the venous thrombus formation [1] of the same molecule?
Its venous thrombus formation is “reduces venous thrombus formation”.

What about the “Prothrombin Time (PT)” value [2] of the same molecule?
Its value is “no effect”.

What about the “Thrombin Time (TT)” value [2] of the same molecule?
The value was “no effect”.

And the “dilute Russell's Viper Venom time (dRVVT)” value [2]?
The value was “no effect”.

What about the binding to plasminogen (plasminogen) of the same molecule?
The binding to plasminogen was “unable to bind”.

What about the “activated Partial Thromboplastin Time (aPTT)” value (intrinsic pathway) of the same molecule?
The value was “prolong”.

And the neutrophil phagocytic activity (human neutrophils; recombinant Ir-CPI 5.0 μg/mL (0.65 μM))?
Its neutrophil phagocytic activity is “no evidence for an effect”.

What about the neutrophil phagocytic activity (human neutrophils; recombinant Ir-CPI 15.3 μg/mL (2 μM)) of the same molecule?
The neutrophil phagocytic activity was “marginal (p-value just below threshold for significance) evidence for an increase”.

And the “decrease of the phagocytic activity of human neutrophils” value (human neutrophils; whatever the concentration)?
Its value is “did not induce a decrease”.

What about the Mean plasma concentration [3] of the same molecule?
The Mean plasma concentration was 6480 ± 1020 ng/mL.

And the “maximal concentration to reach to avoid solubility issues” value [4]?
Its value is 50 mg/mL.

And the binding to plasmin (plasmin)?
Its binding to plasmin is “binds”.
